The target of series [1] is T1, His6x-eIF4E (Saccharomyces cerevisiae) (UniProt P07260).
T1 sequence: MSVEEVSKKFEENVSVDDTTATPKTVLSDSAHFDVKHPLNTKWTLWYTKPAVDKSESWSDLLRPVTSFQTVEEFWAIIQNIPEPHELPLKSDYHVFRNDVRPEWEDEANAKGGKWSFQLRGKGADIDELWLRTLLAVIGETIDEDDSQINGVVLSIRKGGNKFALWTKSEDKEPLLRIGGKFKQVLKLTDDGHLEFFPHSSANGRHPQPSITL
The experiment in a line: MST. As to conditions: 5' m7GpppG cap (Vaccinia Capping System), Buffer A: 10 mM sodium phosphate pH 7.5, 100 mM NaCl, 2.5 mM MgCl2, 1 mM DTT, 0.05% NP40, MST at 25 C (proteins for capped RNA MST RED-tris-NTA labeled in …).

Series [2] deals with T1, His6x-eIF4E (Saccharomyces cerevisiae). The series is described as follows: EMSA. As to conditions: 5' m7GpppG cap (Vaccinia Capping System); Buffer A: 10 mM sodium phosphate pH 7.5, 100 mM NaCl, 2.5 mM MgCl2, 1 mM DTT, 0.05% NP40; MST at 25 C (proteins for capped RNA MST RED-tris-NTA labeled in …).
Series [3] deals with T2, eIF4E/p20 complex (eIF4E/His6x-p20) (Saccharomyces cerevisiae, UniProt P07260).
T2 construct: gene CDC33; recombinant complex, untagged eIF4E (pET28a) co-expressed with His6x-p20 (pET3a, tag kept) in E. coli BL21 Rosetta 2 (DE3); with Cap-associated protein CAF20
T2 sequence (P07260 1-213): T1 sequence
T2 sequence (P12962 1-161 partner): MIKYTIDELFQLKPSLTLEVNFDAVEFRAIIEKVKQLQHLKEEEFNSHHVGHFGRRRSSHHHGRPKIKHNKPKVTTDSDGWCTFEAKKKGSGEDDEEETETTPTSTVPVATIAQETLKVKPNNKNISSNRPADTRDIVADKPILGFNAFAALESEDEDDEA
The experiment in a line: microscale thermophoresis, RED-tris-NTA labelled protein. The series is classed as binding. The note with it: read-out: Cap-analog / MST. The source says: microscale thermophoresis, RED-tris-NTA labelled protein on eIF4E/p20 complex (eIF4E/His6x-p20)

The target in series [4] is T3, eIF4E (His6x-eIF4E) (Saccharomyces cerevisiae, UniProt P07260).
T3 construct: gene CDC33; recombinant, N-terminal His6x tag kept, codon-optimized gene in pET3a, E. coli BL21 Rosetta 2 (DE3)
T3 sequence (P07260 1-213): T1 sequence
The description is as above. In kind it is binding. The note with it: read-out: Cap-analog / MST. From the text:
microscale thermophoresis, RED-tris-NTA labelled protein on eIF4E (His6x-eIF4E)

Series [5] has as its target T4, His6x-eIF4E (Saccharomyces cerevisiae, UniProt P07260 1-213).
T4 sequence: T1 sequence
The experiment in a line: MST; up to 96 uM protein; Buffer A: 10 mM sodium phosphate pH 7.5, 100 mM NaCl, 2.5 mM MgCl2, 1 mM DTT, 0.05% NP40; MST at 25 C (proteins for capped RNA MST RED-tris-NTA labeled in buffer B: 20 mM HEPES-KOH pH 7.5, 50 mM NaCl, 1 mM DTT); EMSA 1.5% agarose, 1x TBE, temperature not stated. As to conditions: protein: recombinant; tags: N-terminal His6x; label: 3' FAM. In general terms: In EMSA bound probe runs differently from free probe, usually more slowly.

As for “GGGAACAAAAGCUGGUAAUCAAGAAUUACAAGAAACAAAAAUUCAAGUAAAUAACAGAUAAUAC [capped SSA1 5'UTR RNA, 64 nt]”, the Kd in series [1] is 226 nM; in series [1] (no peptide, control of the peptide experiment) it was 230 nM; in series [2], 275 nM.
Regarding `C[n+]1cn([C@@H]2O[C@H](COP(=O)(O)OP(=O)(O)OP(=O)(O)OC[C@H]3O[C@@H](n4cnc5c(=O)[nH]c(N)nc54)[C@H](O)[C@@H]3O)[C@@H](O)[C@H]2O)c2nc(N)[nH]c(=O)c21` [m^7GpppG], the Kd is 420 nM in series [3] and 425 nM in series [4].
Turning to GUAUUACAAGAAACAAAAAUUCAAGUAAAUAACAGAUAAU (ssRNA) [uncapped SSA1 5'UTR RNA, 40 nt], the binding result in series [5] was “no binding”.

Source of the values: paper PMC5928113, “Properties of the ternary complex formed by yeast eIF4E, p20 and mRNA” (Scientific Reports, 2018).
